Biological target: vitreal Sema3A of STZ-treated diabetic mice (endogenous mouse Semaphorin3A) (mouse) (UniProt O08665)
Assay: cell-based or functional assay

Sequence of UniProt O08665 (O08665 21-772 limits assumed): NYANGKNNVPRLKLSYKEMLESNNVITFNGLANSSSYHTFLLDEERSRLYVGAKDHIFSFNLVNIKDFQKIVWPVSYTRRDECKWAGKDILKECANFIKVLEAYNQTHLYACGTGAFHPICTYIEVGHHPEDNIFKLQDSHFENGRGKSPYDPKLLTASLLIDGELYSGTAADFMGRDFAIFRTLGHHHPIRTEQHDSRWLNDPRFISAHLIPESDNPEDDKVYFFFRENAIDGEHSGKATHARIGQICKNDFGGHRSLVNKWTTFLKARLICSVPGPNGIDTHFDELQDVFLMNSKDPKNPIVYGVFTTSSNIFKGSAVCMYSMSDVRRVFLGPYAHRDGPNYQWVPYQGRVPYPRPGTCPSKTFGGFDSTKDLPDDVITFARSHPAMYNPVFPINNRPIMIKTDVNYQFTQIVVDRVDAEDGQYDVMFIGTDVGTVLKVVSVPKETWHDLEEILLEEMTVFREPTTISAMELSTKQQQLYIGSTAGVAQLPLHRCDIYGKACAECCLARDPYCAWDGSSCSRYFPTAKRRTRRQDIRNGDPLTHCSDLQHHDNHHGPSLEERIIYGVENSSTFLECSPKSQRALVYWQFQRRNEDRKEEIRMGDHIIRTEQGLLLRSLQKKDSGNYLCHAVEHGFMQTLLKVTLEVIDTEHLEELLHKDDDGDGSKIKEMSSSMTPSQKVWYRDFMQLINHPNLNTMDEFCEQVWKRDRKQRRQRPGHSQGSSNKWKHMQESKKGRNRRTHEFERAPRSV

Work on “recombinant mouse soluble Neuropilin-1 (rmNRP1) (from UniProt P97333 22-856) (receptor)” yielded a reduction in retinal permeability (Evans Blue permeation) at week 8 of diabetes, after intravitreal injection of rNrp-1 in STZ mice at weeks 6 and 7 of 48.1%.

— patent US20180030455A1
